Assay results taken from PMC6927645, “Self-association of human beta-galactocerebrosidase: Dependence on pH, salt, and surfactant” (PLoS ONE, 2019).

Biological target: the molecule itself
Assay: AUC; sedimentation velocity dilution series, 40,000 rpm, 20°C, Rayleigh optics; 5 mM sodium phosphate pH 6.0 with 50, 150 or 500 mM NaCl; Wide Distribution Analysis and fits in SedAnal; self-association of monomer to higher oligomers

B1: recombinant human galactocerebrosidase (hGALC) (enzyme, UniProt P54803 43-685, looked up)
chain: YVLDDSDGLGREFDGIGAVSGGGATSRLLVNYPEPYRSQILDYLFKPNFGASLHILKVEIGGDGQTTDGTEPSHMHYALDENYFRGYEWWLMKEAKKRNPNITLIGLPWSFPGWLGKGFDWPYVNLQLTAYYVVTWIVGAKRYHDLDIDYIGIWNERSYNANYIKILRKMLNYQGLQRVKIIASDNLWESISASMLLDAELFKVVDVIGAHYPGTHSAKDAKLTGKKLWSSEDFSTLNSDMGAGCWGRILNQNYINGYMTSTIAWNLVASYYEQLPYGRCGLMTAQEPWSGHYVVESPVWVSAHTTQFTQPGWYYLKTVGHLEKGGSYVALTDGLGNLTIIIETMSHKHSKCIRPFLPYFNVSQQFATFVLKGSFSEIPELQVWYTKLGKTSERFLFKQLDSLWLLDSDGSFTLSLHEDELFTLTTLTTGRKGSYPLPPKSQPFPSTYKDDFNVDYPFFSEAPNFADQTGVFEYFTNIEDPGEHHFTLRQVLNQRPITWAADASNTISIIGDYNWTNLTIKCDVYIETPDTGGVFIAGRVNKGGILIRSARGIFFWIFANGSYRVTGDLAGWIIYALGRVEVTAKKWYTLTLTIKGHFTSGMLNDKSLWTDIPVNFPKNGWAAIGTHSFEFAQFDNFLVEATR
modifications: heavily glycosylated; glycan structures not determined
notes: human galactocerebrosidase (GALC); The protein was recovered from the culture broth, and the computed 73 kDa protein moiety fits the precursor without its signal peptide (surmised); No tag is mentioned; also called human beta-galactocerebrosidase; galactocerebrosidase enzyme; source: virus filtration; ultrafiltration/diafiltration)
- stoichiometry N: ≥ 4
